Data published in patent publication US20180371433A1 (UNIVERSITY OF FLORIDA RESEARCH FOUNDATION, published 2018).

T1: SAMP1 with deletion of the C-terminal diglycine residues (ΔGG), D4GUF6
T1 chain: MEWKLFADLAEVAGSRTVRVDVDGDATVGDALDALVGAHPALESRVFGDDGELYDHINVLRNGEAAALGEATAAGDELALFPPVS

T2: ubiquitin-like SAMP1, D4GUF6
T2 chain: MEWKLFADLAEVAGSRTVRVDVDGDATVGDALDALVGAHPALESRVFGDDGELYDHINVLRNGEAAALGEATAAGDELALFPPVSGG

B1: UbaA of Hfx. volcanii (protein)
chain: MTLSLDATQLDRYSRHIIMDEVGPEGQGRLLSSRVVVVGAGGLGAPAIQYLAAVGVGELVVVDDDVVERSNLQRQVVHCDDDVGTPKAESAAAFVRGLNPDVSVEPVEARVDKSNVHEVVAGSDVVVDASDNFPTRYLLNDVCRFEGIPLVHGAIYKFEGQATTLVPDGPCYRCLFPEAPEPGTVPDCATTGVLGVLPGTVGCIQATEAMKLLLDEGEALDGRLLFYDAMDMTFETVPYRTNPDCPVCGEGGVDSIEDIDYVESCAISLD
B2: HvPPA with an N-terminal poly-histidine tag (His6-HvPPA) linked with a thrombin-cleavage site (enzyme)
chain: MVNLWEDMETGPNAPDEIYAVVECLKGERNKYEYDKDIPGVVLDRVLHSNVHYPSDYGFIPQTYYDDEDPFDVLVLVEDQTFPGCVIEARPVALMKMDDDGEQDDKVIAVPVEDPRYDHIEDLDDIPQQTLDEIDEFFATYKNLEAGKEVETLGWEDKQAAKDAIEHAMDLYEENFA
notes: Expressed in Hfx. volcanii H26-pJAM2920; Purified by Ni2+ IMAC and SEC as homo-hexamers (~134 kDa) and homo-trimers (~64 kDa); also called HVO_0729; Haloferax volcanii inorganic pyrophosphatase; not shown: N-terminal His6 tag and thrombin-cleavage site from vector pJAM503

Experiments:
[1] = target: T1, SAMP1 with deletion of the C-terminal …
[2] = target: T2, ubiquitin-like SAMP1, D4GUF6
[3] = target: the molecule itself; test: size exclusion chromatography (Superdex 200); hexamers of ~134 kDa and trimers of ~64 kDa
Experimental: HvPPA (HVO_0729, UniProt: D4GT97) was expressed with an N-terminal poly-histidine tag (His₆) in Hfx. volcanii H26-pJAM2920 (Table 1). Hfx. volcanii cells were grown to stationary phase (OD₆₀₀ of 3-3.5) (4×1-liter cultures in 2.8-liter Fernbach flasks) and harvested by centrifugation (10-15 min at 9,200× g and 25° C.). Cell pellets were resuspended at 5 ml per g wet weight cells in Tris-salt buffer (20 mM Tris-HCl, pH 7.5, 2 M NaCl and 2.5 mM MgCl₂) supplemented with 40 mM imidazole and 1 mini-tablet protease inhibitor cocktail (Roche product no. 05892791001) per 10 ml buffer. Cells were lysed by passing through a French Press (three times at 20,000 psi). Whole cell lysate was clarified by centrifugation (twice for 30 min at 9,200× g and 4° C.) and sequential filtration using 0.8 μm and 0.2 μm cellulose acetate filters (Thermo Scientific Nalgene). Clarified cell lysate was applied to a HisTrap HP column (5 ml, 17-5248-01, GE Healthcare) pre-equilibrated and washed in 100 ml of Tris-salt buffer with 40 mM imidazole. Fractions containing HvPPA were eluted in Tris-salt buffer with a 25 ml gradient from 40 mM to 500 mM imidazole. […] Purity of HvPPA was assessed by Coomassie Blue stained SDS-PAGE gels and PPi activity assay. […]

| Protein | Pi detected by colorimetric (malachite green) assay in the HvPPA-coupled adenylation assay [1] | Pi detected by colorimetric (malachite green) assay in the HvPPA-coupled adenylation assay [2] | binding result [3] |
| --- | --- | --- | --- |
| B1 | Deletion of the C-terminal diglycine residues of SAMP1 (ΔGG) were found to significantly reduce the level of Pi detected by this assay | Significant levels of Pi were detected when UbaA and HvPPA were coupled with ATP and SAMP1 in the reaction |  |
| B2 |  |  | binds |
